Experimental data from patent US6350731.
Where no end group is shown, it is not given here.

Experiments:
Rb 65 = assay: competitive ELISA on antiserum Rb 65; coated antigen not given
Rb 66 = assay: competitive ELISA on antiserum Rb 66; coated antigen not given
4 DMB = assay: CELIA on monoclonal 4 DMB; coated antigen not given
12 DB-1 = assay: CELIA on monoclonal 12 DB-1; coated antigen not given
10 DB-1 = assay: CELIA on monoclonal 10 DB-1; coated antigen not given
Rb 112 = assay: competitive ELISA on antiserum Rb 112; coated antigen not given
Rb 109 = assay: competitive ELISA on antiserum Rb 109; coated antigen not given
9 DB-1 = assay: CELIA on monoclonal 9 DB-1; coated antigen not given
21 DB-1 = assay: CELIA on monoclonal 21 DB-1; coated antigen not given
13 DB-1 = assay: CELIA on monoclonal 13 DB-1; coated antigen not given
17 DB-1 = assay: CELIA on monoclonal 17 DB-1; coated antigen not given
Rb 37 = assay: competitive ELISA on antiserum Rb 37; coated antigen not given
Rb 38 = assay: competitive ELISA on antiserum Rb 38; coated antigen not given
2 DMB = assay: CELIA on monoclonal 2 DMB; coated antigen not given
22 DB-1 = assay: CELIA on monoclonal 22 DB-1; coated antigen not given
Rb 39 = assay: competitive ELISA on antiserum Rb 39; coated antigen not given
19 DB-1 = assay: CELIA on monoclonal 19 DB-1; coated antigen not given
Rb 67 = assay: competitive ELISA on antiserum Rb 67; coated antigen not given
Rb 68 = assay: competitive ELISA on antiserum Rb 68; coated antigen not given
Rb 78 = assay: competitive ELISA on antiserum Rb 78; coated antigen not given

Ac-ISRRLIDRTNANFLC (not fully specified; printed as Ac-25I-S-R-R-L-I-D-R-T-N-A-N-F-L38-C) [GP4] was tested, and the IC50 (Rb 65) was 3 nM, the IC50 (Rb 66) was < 2 nM and the IC50 (4 DMB) was 150 nM. It also gave an IC50 (12 DB-1) of 2000 nM, an IC50 (10 DB-1) of 400 nM and an IC50 (Rb 112) of 2 nM. The IC50 (Rb 109) was 2 nM, the IC50 (9 DB-1) was 1000 nM and the IC50 (21 DB-1) was 18 nM. The IC50 (13 DB-1) was 200 nM, the IC50 (17 DB-1) was 180 nM and the IC50 (Rb 37) was 20 nM. For the same binder, the IC50 (Rb 38) was 150 nM, the IC50 (2 DMB) was 2000 nM and the IC50 (22 DB-1) was 20 nM. For the same binder, the IC50 (Rb 39) was 2 nM and the IC50 (19 DB-1) was 18 nM.

In the case of Ac-RKIEIVRKKC [GP8], the IC50 (Rb 67) is reported as 2 nM and the IC50 (Rb 68) is reported as < 2 nM.

With Ac-ISRRLIDRTNANFLVWPPC [GP10] the IC50 (Rb 65) was 3 nM, the IC50 (Rb 66) was < 2 nM and the IC50 (4 DMB) was 150 nM. It also gave an IC50 (Rb 112) of 3 nM, an IC50 (Rb 109) of 4 nM and an IC50 (9 DB-1) of 1200 nM. For the same binder, the IC50 (21 DB-1) was 30 nM, the IC50 (13 DB-1) was 400 nM and the IC50 (17 DB-1) was 3000 nM. For the same binder, the IC50 (Rb 37) was 10 nM, the IC50 (Rb 38) was 74 nM and the IC50 (2 DMB) was 2000 nM. For the same binder, the IC50 (22 DB-1) was 25 nM, the IC50 (Rb 39) was 2 nM and the IC50 (19 DB-1) was 18 nM.

With RKIEIVRKKPIFKKATV [GP21a] the IC50 (Rb 78) was 100 nM.
